What all share (conditions): both partners purified
Assay [1] addresses T1, IsdB linker-NEAT2 (Staphylococcus aureus Mu50 (by deposit …)). The assay is described as follows: ITC. (ITC needs no label: the signal is the heat of the interaction.)
Assay [2] concerns the target T2, IsdH linker-NEAT3 (Staphylococcus aureus Mu50, UniProt Q931P4). Briefly: ITC.
Assay [3] concerns the target T3, IsdH NEAT3 (Staphylococcus aureus (Mu50 for the …, UniProt Q931P4)).
T3 construct: also called NEAT3 domain (no linker)
Briefly: ITC.

Assay [4] has as its target T1, IsdB linker-NEAT2. Briefly: SPR. (In general: In SPR one partner is held on a chip, and binding of the other changes the refractive index at the surface.)
The target in assay [5] is T2, IsdH linker-NEAT3. The assay is described as follows: SPR.
Assay [6] addresses T3, IsdH NEAT3. Briefly: SPR.
The target of assay [7] is T3, IsdH NEAT3. Briefly: SPR. The source holds these as a separate data set.
Assay [8] has as its target T2, IsdH linker-NEAT3. The assay is described as follows: SPR. This is another data set of the same source.
Assay [9] deals with T2, IsdH linker-NEAT3. The assay is described as follows: ITC. The source holds these as a separate data set.
Assay [10] addresses T2, IsdH linker-NEAT3. The assay is described as follows: SPR. The source holds these as a separate data set.

Changes are numbered by the printed parent chain.

B1: VHH6 (VHH)
VHH: ELQLVESGGGLVQPGGSLSLSCEVSGFSFDDVDNFIIAWFRQAPGKEREGVSFLRKYDMSTYYAESVKGRFTISSDNARDTVYLQMTNLKPEDTAVYYCALDREGFVFEQGMDFWGKGTQVTVSS
notes: also called WT VHH6; WT; source: E. coli BL21(DE3), pRA2 vector with PelB signal peptide, purified (Ni-NTA, SEC)
In general, Kd refers to the equilibrium constant for the complex coming apart. Read a low Kd as a tighter complex. As a reminder, the koff is the first-order rate constant of dissociation. By kon is commonly meant a measure of how fast the partners come together. With B1, the results for the dH with IsdB linker-NEAT2 [1], in the assay with IsdH linker-NEAT3 [2] and with IsdH NEAT3 [3] were -24.2 kcal/mol, -17.1 kcal/mol and -11.9 kcal/mol, respectively. The “stoichiometry N” value in the assay with IsdB linker-NEAT2 [1] was 0.8 mol:mol; in the assay with IsdH linker-NEAT3 [2], 1.1 mol:mol; with IsdH NEAT3 [3], 0.9 mol:mol. For the same molecule, the Kd was determined as 0.25 nM in the assay with IsdB linker-NEAT2 [4], 0.53 nM with IsdH linker-NEAT3 [5], 637 nM with IsdH NEAT3 [6] and 638 nM with IsdH NEAT3 [7]. The koff was found to be 4e-05 s⁻¹ with IsdB linker-NEAT2 [4], 4.2e-05 s⁻¹ with IsdH linker-NEAT3 [5] and 0.0235 s⁻¹ in the assay with IsdH NEAT3 [6]. For the same molecule, the kon with IsdB linker-NEAT2 [4] was determined as 160000 M⁻¹ s⁻¹; with IsdH linker-NEAT3 [5], 81000 M⁻¹ s⁻¹; with IsdH NEAT3 [6], 37000 M⁻¹ s⁻¹.

B2: VHH6 Y62A (VHH)
VHH: B1 VHH with Y62A
notes: source: E. coli BL21(DE3), purified as the WT (Ni-NTA, SEC)
Take B2: in the assay with IsdH linker-NEAT3 [8], binding was put at a Kd of 45.4 nM, the koff stood at 0.00207 s⁻¹ and the kon came out at 46000 M⁻¹ s⁻¹. Further, in the assay with IsdH linker-NEAT3 [9], the dH is -11.1 kcal/mol and the “stoichiometry N” value was 0.93 mol:mol.

B3: VHH6 F108A (VHH)
VHH: B1 VHH with F108A
notes: as for B2
In the assay with IsdH linker-NEAT3 [8], B3 displayed a dissociation constant (Kd) of 2.6 nM, a koff of 0.00049 s⁻¹ and a kon of 189000 M⁻¹ s⁻¹. Further, in the assay with IsdH linker-NEAT3 [9], the dH is -19.3 kcal/mol and the “stoichiometry N” value was 0.97 mol:mol.

B4: VHH6 V107A (VHH)
VHH: B1 VHH with V107A
notes: as for B2
For the molecule B4, in the assay with IsdH linker-NEAT3 [8], the Kd was 9.7 nM, the koff came out at 0.00105 s⁻¹ and the kon stood at 109000 M⁻¹ s⁻¹. Moreover, in the assay with IsdH linker-NEAT3 [9], the dH is -15.9 kcal/mol and the “stoichiometry N” value was 0.96 mol:mol.

B5: VHH6 E104A (VHH)
VHH: B1 VHH with E104A
notes: as for B2
In the assay with IsdH linker-NEAT3 [8], B5 returned a Kd of 6.4 nM, a koff of 0.00142 s⁻¹ and a kon of 151000 M⁻¹ s⁻¹. Further, in the assay with IsdH linker-NEAT3 [9], the dH was -13.6 kcal/mol and the “stoichiometry N” value is 0.99 mol:mol.

B6: VHH6 F106A (VHH)
VHH: B1 VHH with F106A
notes: as for B2
In the assay with IsdH linker-NEAT3 [8], B6 yielded a Kd of 3.1 nM, a koff of 0.00031 s⁻¹ and a kon of 99000 M⁻¹ s⁻¹. In addition, in the assay with IsdH linker-NEAT3 [9], the dH was -16.6 kcal/mol and the “stoichiometry N” value was 1.01 mol:mol.

B7: VHH35 (VHH)
VHH: B1 VHH with E1Q
notes: also called VHH number 35; hit clone 35; source: E. coli BL21(DE3), pRA2 vector with PelB signal peptide, purified (Ni-NTA, SEC)
Take B7: in the assay with IsdH linker-NEAT3 [2], the dH is -16 kcal/mol and the “stoichiometry N” value was 0.98 mol:mol. For the same molecule, in the assay with IsdH NEAT3 [3], the dH was -17 kcal/mol and the “stoichiometry N” value was 1.02 mol:mol. In the assay with IsdH linker-NEAT3 [5], this molecule returned a Kd of 0.53 nM, a koff of 3.5e-05 s⁻¹ and a kon of 66000 M⁻¹ s⁻¹. For the same molecule, in the assay with IsdH NEAT3 [6], the Kd came to 237 nM, the koff worked out at 0.00918 s⁻¹ and the kon was 39000 M⁻¹ s⁻¹.

B8: VHH6 D33A (VHH)
VHH: B1 VHH with D33A
notes: as for B2
With B8, in the assay with IsdH linker-NEAT3 [8], the Kd was 2.08 nM, the koff stood at 0.00013 s⁻¹ and the kon stood at 62000 M⁻¹ s⁻¹. In the assay with IsdH linker-NEAT3 [9], the dH is -14.7 kcal/mol and the “stoichiometry N” value was 1.01 mol:mol.

B9: VHH6 Y57A (VHH)
VHH: B1 VHH with Y57A
notes: as for B2
In the assay with IsdH linker-NEAT3 [8], B9 came in with a Kd of 114 nM, an off-rate (koff) of 0.0144 s⁻¹ and a kon of 126000 M⁻¹ s⁻¹. In addition, in the assay with IsdH linker-NEAT3 [9], the dH was -9.7 kcal/mol and the “stoichiometry N” value is 1.03 mol:mol. The koff with IsdH linker-NEAT3 [10] amounted to 144 s⁻¹.

B10: VHH6 R55A (VHH)
VHH: B1 VHH with R55A
notes: as for B2
Turning to B10, in the assay with IsdH linker-NEAT3 [8], the Kd turned out to be 25.4 nM, the koff was 0.00855 s⁻¹ and the kon amounted to 284000 M⁻¹ s⁻¹. Further, in the assay with IsdH linker-NEAT3 [9], the dH was -15.9 kcal/mol and the “stoichiometry N” value was 0.94 mol:mol.

Values taken from article PMC10466926 (The Journal of Biological Chemistry, 2023).
